# Laboratory results published in patent US20180303937A1, “A COMPOSITION FOR CONTROLLED RELEASE OF A BIOMOLECULE, METHOD OF PREPARATION AND USES THEREOF” (CENTRO DE NEUROCIENCIAS E BIOLOGIA CELULAR, priority 2015, published 2018).
# System: SC-1 mouse fibroblasts
# Assay: Cytotoxicity of BSA-dsDNA51.7-AuNR (Celltiter-Glo ATP assay)
# Format: cell-based
# Conditions: 50 μg/mL NR; irradiation 1.25 to 2 W/cm^2, 2 min
# Procedure: FIG. 7: Cytotoxicity of BSA-dsDNA51.7-AuNR. Mouse fibroblasts were seeded on a 96 well plate (4×10^3 cells/well), left to adhere for 24 h and then incubated with different concentrations of BSA-dsDNA51.7-AuNR for 4 h. After incubation, the cells were washed with medium to remove non-internalized AuNR. Some of the conditions were irradiated for 2 min with 1.25 or 2 W/cm^2. Then, the plate was left in the incubator for 24 h. The ATP production was measured by a Celltiter-Glo Luminescent Cell Viability Assay (Promega).
# Cytotoxicity of BSA-dsDNA51.7-AuNR. SC-1 mouse fibroblasts were grown in DMEM supplemented with 10% fetal bovine serum (FBS), at 37° C. in a fully humidified air containing 5% CO2. To assess the cytotoxicity of gold NRs, fibroblasts were seeded on a 96 well plate (4×10^3 cells/well), left to adhere for 24 h and then incubated with BSA-dsDNA51.7-AuNR for 4 h. After incubation, the cells were washed with medium to remove non-internalized NR. In some conditions, after incubation with BSA-dsDNA51.7-AuNR, the cells were washed and irradiated with a fiber coupled Roithner laser (785 nm). Each well was placed below the end of the fibre and irradiated with a power density of 1.25 and 2 W/cm^2 for 2 min. Then cells were left in the incubator for 24 h and the ATP production was measured by a Celltiter-Glo Luminescent Cell Viability Assay (Promega).
substance,measurement,value
BSA-dsDNA51.7-AuNR: gold nanorods carrying BSA via dsDNA with melting temperature 51.7° C.,cytotoxic effects (ATP production),do not show significant cytotoxic effects
